Test results reported in US20250066483A1 (FUSO PHARMACEUTICAL INDUSTRIES, published 2025).

What was measured:
bovine FcγRI-His = target: T1, bovine FcγRI-His (bovine); assay: ELISA: antibody immobilized at 1.56 to 50 nM, bovine FcγRI-His added at 10 µg/ml, detection with anti-polyhistidine antibody and HRP anti-mouse IgG [A]
T1 construct: extracellular domain; Made in Expi293F cells; also called soluble bovine FcγRI
Experimental: (§1) Subsequently, each well was washed with 200 μl of 0.05% Tween 20-supplemented PBS (PBS-T) five times, followed by blocking with SuperBlock (PBS) Blocking Buffer (Thermo Fisher Scientific) at 37° C. for 30 min. Each well was washed again in the same manner. Then, bovine FcγRI-His, FcγRII-His, FcγRIII-His or Fcγ2R-His was added to each well at a final concentration of 10 μg/ml and reacted at 37° C. for 1 hr. After washing, anti-polyhistidine tag mouse monoclonal antibody (Abcam) was reacted at 37° C. for 30 min. Subsequently, each well was washed, and horseradish peroxidase-labeled anti-mouse IgG goat polyclonal antibody (MP Biomedicals) was reacted at 37° C. for 30 min. Each well was washed again, and then TMB One Component Substrate (Bethyl) was added for coloring. Thereafter, the enzyme reaction was terminated with 0.18 M dilute sulfuric acid, and absorbance (450 nm) was measured with Microplate Reader MTP-900 (Corona Electric).

bovine FcγRII-His = target: T2, bovine FcγRII-His (bovine, UniProt Q28110 43-225); assay: ELISA: antibody immobilized at 1.56 to 50 nM, bovine FcγRII-His added at 10 µg/ml [B]
T2 construct: extracellular domain; Made in Expi293F cells; also called soluble bovine FcγRII
T2 sequence: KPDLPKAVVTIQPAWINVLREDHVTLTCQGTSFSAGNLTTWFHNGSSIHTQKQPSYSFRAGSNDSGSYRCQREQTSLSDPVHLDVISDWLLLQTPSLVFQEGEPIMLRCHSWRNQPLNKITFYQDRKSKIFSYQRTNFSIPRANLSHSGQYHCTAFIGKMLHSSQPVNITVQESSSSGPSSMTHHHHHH
Experimental: as §1

bovine PD-1-His = target: T3, bovine PD-1-His (bovine); assay: SPR (Biacore X100), bovine PD-1-His immobilised on a CM5 chip, antibody as analyte, single kinetics, 3 repeats
T3 construct: extracellular domain; Made in Expi293F cells; also called soluble bovine PD-1-His; PD-1 protein
Experimental: The binding avidities to bovine PD-1 of rat anti-bovine PD-1 antibody 5D2 and rat-bovine chimeric anti-bovine PD-1 antibody ch5D2 were measured by surface plasmon resonance using a biomolecular interaction analyzer (Biacore X100). Briefly, bovine PD-1-His (described above) was immobilized on a CM5 sensor chip (GE Healthcare) as a ligand. Subsequently, rat anti-bovine PD-1 antibody 5D2 or rat-bovine chimeric anti-bovine PD-1 antibody ch5D2 was reacted as an analyte, followed by single kinetics analysis. The experiment was repeated 3 times under the same conditions. Binding constant (kd value) and dissociation constant (ka value) were determined in each experiment, and binding avidity (KD value) was obtained.

[1] = target: T4, canine PD-L1 on cPD-L1-EGFP expressing COS-7 cells (canine, UniProt E2RKZ5 19-289); assay: flow cytometry (section 2.5)
T4 construct: Transient expression in COS-7 cells; also called canine PD-L1 expressing cells; cPD-L1-EGFP expressing cell
T4 sequence: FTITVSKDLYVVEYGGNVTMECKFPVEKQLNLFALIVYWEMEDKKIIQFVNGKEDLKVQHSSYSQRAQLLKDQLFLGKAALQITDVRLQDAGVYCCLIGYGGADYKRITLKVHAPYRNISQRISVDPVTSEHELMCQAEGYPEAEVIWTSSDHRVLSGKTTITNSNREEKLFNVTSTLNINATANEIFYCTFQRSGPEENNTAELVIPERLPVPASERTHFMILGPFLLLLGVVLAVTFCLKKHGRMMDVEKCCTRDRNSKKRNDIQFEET
Experimental: In order to identify rat anti-bovine PD-L1 monoclonal antibody showing cross-reactivity with canine PD-L1, flow cytometry was performed using the anti-bovine PD-L1 antibody prepared in 2.1 above. The anti-bovine PD-L1 antibody (10 μg/ml) was reacted with 2×10⁵-1×10⁶ cells at room temperature for 30 min. After washing, the anti-bovine PD-L1 antibody was detected with allophycocyanine-labeled anti-rat Ig goat antibody (Beckman Coulter). FACS Verse (Becton, Dickinson and Company) was used for analysis. As negative controls, rat IgG2a (κ) isotype control (BD Biosciences), rat IgG1 (κ) isotype control (BD Biosciences) and rat IgM (κ) isotype control (BD Biosciences) were used. For every washing operation and dilution of antibodies, 10% inactivated goat serum-supplemented PBS was used (MaekawaN, Konnai S, Ikebuchi R, Okagawa T, Adachi M, Takagi S, KagawaY, Nakajima C, Suzuki Y, Murata S, Ohashi K. PLoS One. 2014 Jun. 10; 9(6):e98415 which is an article describing the use of three bovine PD-L1 monoclonal antibodies: 4G12 (Rat IgG2a (κ)), 5A2 (Rat IgG1 (κ)) and 6G7 (Rat IgM (κ)).

canine PD-L1-His = target: T5, canine PD-L1-His (canine); assay: SPR (Biacore X100), cPD-L1-His captured by anti-histidine antibody on a CM5 chip, antibody as analyte
T5 construct: extracellular domain; Made in Expi293F cells; also called cPD-L1-His
Experimental: Using a biomolecular interaction analyzer (Biacore X100), the binding avidities to cPD-L1-His of rat anti-bovine PD-L1 monoclonal antibody 4G12 and rat-canine chimeric anti-PD-L1 antibody c4G12 were assessed. Briefly, anti-histidine antibody was fixed on CM5 censor chip, followed by capturing of cPD-L1-His. Subsequently, monoclonal antibodies were added as analyte to observe specific binding. […] Further, the binding avidities of canine PD-1-Ig and CD80-Ig to cPD-L1-His were measured in the same manner and found to be clearly lower than that of rat-canine chimeric anti-PD-L1 antibody c4G12 (Table 1).

[2] = target: T4, canine PD-L1 on cPD-L1-EGFP expressing …; assay: flow cytometry on canine PD-L1 expressing cells

B1: rat-bovine chimeric anti-bovine PD-1 antibody ch5D2 having wild-type bovine IgG1 (IgG1 WT) (antibody)
heavy: QVQLKETGPGLVQPTQTLSITCTVSGFSLTSYYIQWVRQTPGKGLEWMGFIRSGGSTEYNSEFKSRLSINRDTSKNQVFLKMNSLKTEDTGVYYCARTSSGYEGGFDYWGQGVMVTVSSASTTAPKVYPLSSCCGDKSSSTVTLGCLVSSYMPEPVTVTWNSGALKSGVHTFPAVLQSSGLYSLSSMVTVPGSTSGQTFTCNVAHPASSTKVDKAVDPTCKPSPCDCCPPPELPGGPSVFIFPPKPKDTLTISGTPEVTCVVVDVGHDDPEVKFSWFVDDVEVNTATTKPREEQFNSTYRVVSALRIQHQDWTGGKEFKCKVHNEGLPAPIVRTISRTKGPAREPQVYVLAPPQEELSKSTVSLTCMVTSFYPDYIAVEWQRNGQPESEDKYGTTPPQLDADSSYFLYSKLRVDRNSWQEGDTYTCVVMHEALHNHYTQKSTSKSAGK
light: DVVLTQTPVSLSVTLGDQASISCRSSQSLEYSDGYTYLEWYLQKPGQSPQLLIYGVSNRFSGVPDRFIGSGSGTDFTLKISRVEPEDLGVYYCFQATHDPDTFGAGTKLELKQPKSPPSVTLFPPSTEELNGNKATLVCLISDFYPGSVTVVWKADGSTITRNVETTRASKQSNSKYAASSYLSLTSSDWKSKGSYSCEVTHEGSTVTKTVKPSECS
notes: Made in Expi293F cells; also called ch5D2 IgG1 WT
- EC50 (read off the curve) (bovine FcγRI-His): ~9 nM

B2: rat-bovine chimeric anti-bovine PD-1 antibody ch5D2 (mutated bovine IgG1, IgG1 ADCC-) (antibody)
heavy: QVQLKETGPGLVQPTQTLSITCTVSGFSLTSYYIQWVRQTPGKGLEWMGFIRSGGSTEYNSEFKSRLSINRDTSKNQVFLKMNSLKTEDTGVYYCARTSSGYEGGFDYWGQGVMVTVSSASTTAPKVYPLSSCCGDKSSSTVTLGCLVSSYMPEPVTVTWNSGALKSGVHTFPAVLQSSGLYSLSSMVTVPGSTSGQTFTCNVAHPASSTKVDKAVDPTCKPSPCDCCPPPPVAGPSVFIFPPKPKDTLTISGTPEVTCVVVDVGHDDPEVKFSWFVDDVEVNTATTKPREEQFNSTYRVVSALRIQHQDWTGGKEFKCKVHNEGLPSSIVRTISRTKGPAREPQVYVLAPPQEELSKSTVSLTCMVTSFYPDYIAVEWQRNGQPESEDKYGTTPPQLDADSSYFLYSKLRVDRNSWQEGDTYTCVVMHEALHNHYTQKSTSKSAGK
light: DVVLTQTPVSLSVTLGDQASISCRSSQSLEYSDGYTYLEWYLQKPGQSPQLLIYGVSNRFSGVPDRFIGSGSGTDFTLKISRVEPEDLGVYYCFQATHDPDTFGAGTKLELKQPKSPPSVTLFPPSTEELNGNKATLVCLISDFYPGSVTVVWKADGSTITRNVETTRASKQSNSKYAASSYLSLTSSDWKSKGSYSCEVTHEGSTVTKTVKPSECS
notes: 5D2 variable regions on bovine IgG1 (modified from X62916); also called ch5D2 IgG1 ADCC-
- binding result (bovine FcγRII-His): no binding (tested: 50 nM)
- Kd (bovine PD-1-His): 10.5 nM
- koff (bovine PD-1-His): 0.000216 s⁻¹
- kon (bovine PD-1-His): 20700 M⁻¹ s⁻¹

B3: rat anti-bovine PD-L1 monoclonal antibody 4G12 (antibody, V domains shown)
VH: QVQLQQSGAELVKPGSSVKISCKASGYTFTSNFMHWVKQQPGNGLEWIGWIYPEYGNTKYNQKFDGKATLTADKSSSTAYMQLSSLTSEDSAVYFCASEEAVISLVYWGQGTLVTVSS
VL: DIAITQSPSSVAVSVGETVTLSCKSSQSLLYSENQKDYLGWYQQKPGQTPKPLIYWATNRHTGVPDRFTGSGSGTDFTLIISSVQAEDLADYYCGQYLVYPFTFGPGTKLELK
- binding result [1]: binds
- kon (canine PD-L1-His): 2.42e+06 M⁻¹ s⁻¹

B4: rat-canine chimeric anti-PD-L1 antibody c4G12 (antibody, V domains shown)
VH: QVQLQQSGAELVKPGSSVKISCKASGYTFTSNFMHWVKQQPGNGLEWIGWIYPEYGNTKYNQKFDGKATLTADKSSSTAYMQLSSLTSEDSAVYFCASEEAVISLVYWGQGTLVTVSS
VL: DIAITQSPSSVAVSVGETVTLSCKSSQSLLYSENQKDYLGWYQQKPGQTPKPLIYWATNRHTGVPDRFTGSGSGTDFTLIISSVQAEDLADYYCGQYLVYPFTFGPGTKLELKQ
notes: 4G12 variable regions on canine IgG-D (equivalent to human IgG4) heavy and canine lambda light constant regions
- binding result [2]: binds
- kon (canine PD-L1-His): 3.14e+06 M⁻¹ s⁻¹
